Measurements taken from article PMC3839082.

Target: hCINAP-H79G mutant (human) (UniProt Q9Y3D8)
Assay: SEC

- stoichiometry N: 2
Substance: hCINAP-H79G mutant (from UniProt Q9Y3D8 1-172) (enzyme)
